Assay results published in the supplement of paper PMC10567573.
± gives the standard deviation.

Assay: protein stability index of a GFP-peptide fusion (GPS, HEK-293T) (PSI 1-6); higher = more stable
Conditions: c terminus: a fixed tail appended
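Note: 24-mer peptide tiles fused after GFP, lentivirally expressed, FACS-sorted into six equal bins by GFP/DsRed ratio, decoded by Illumina sequencing, PSI is the read-weighted mean bin number.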

| Sequence | protein stability index (treatment: DMSO) | protein stability index (treatment: MLN4924 1 uM, 8 h) |
| --- | --- | --- |
| SSALSQSGGGSTSAAGIEARSRAL [SPACA3] | 4.76 ± 0.41 | 4.82 ± 0.064 |
| SSGEDKENDGFVFKMPWKPTHPSS [CDC25B] | 3.92 ± 0.22 | 4.16 ± 0.25 |
| SSPAGLSREYKLVMLGAGGVGKSA [RIT1] | 3.17 ± 0.62 | 2.96 ± 0.22 |
| SSPQGVQLDIASQSLDQEILLKVK [BCL2L13] | 3.58 ± 0.4 | 3.83 ± 0.1 |
| SSRLPQPSGAGKTVVGVPSGKVSS [ZC2HC1A] | 4.62 ± 0.13 | 4.81 ± 0.12 |
| SSVQKALFEEEDHVKKLQQKVATL [CCDC3] | 4.46 ± 0.33 | 4.49 ± 0.32 |
| STHLTVHRRIHTGEKPYECQDCGR [ZNF8] | 3.9 ± 0.32 | 4.1 ± 0.52 |
| STQIRALTEQQEQLRGQLQDLDSR [RASAL3] | 5.14 ± 0.27 | 5.12 ± 0.19 |
| SVAPMNVRRGLAGATTLGDMIYVS [KLHL12] | 2.78 ± 0.53 | 2.96 ± 0.5 |
| SVGGVPGGTGSGDGNKIFLCHCGK [ZBTB22] | 3.51 ± 0.19 | 3.73 ± 0.47 |
| SVPIVYEKYKTQIDHYVGIARDQT [RTN3] | 2.89 ± 0.36 | 3.06 ± 0.09 |
| SVSLDRCIKIWDVTSQATLLTITK [WDR88] | 2.43 ± 0.2 | 2.43 ± 0.21 |
| SVSNSTQTSSSSSQSETSSAVSTP [DLC1] | 5.5 ± 0.1 | 5.43 ± 0.23 |
| SWTGDGWEFKLSDPDEVARRWGKR [ETS1] | 3.73 ± 0.062 | 3.88 ± 0.25 |
| SWTTVTSMTTPRCYVGATVLRGRL [KLHL12] | 2.23 ± 0.15 | 2.24 ± 0.35 |
| TALPPMNEARHNFGIVEIDGMLYI [GAN] | 2.24 ± 0.31 | 2.08 ± 0.26 |
| TASDSESRAESAPLPVSADDTPEV [CDS2] | 5.48 ± 0.45 | 5.36 ± 0.38 |
| TASLIEDIDKKHLVLLRDGRTLIG [LSM1] | 2.83 ± 0.15 | 2.62 ± 0.32 |
| TCSNKKALLKFKPGAFIAGVPVQP [LPCAT4] | 2.85 ± 0.4 | 3.03 ± 0.19 |
| TDSKELSMAKEVIAKELSKTYQET [ZBED1] | 4.91 ± 0.1 | 4.82 ± 0.57 |
| TEPDYKSKDWVFLNYTYKRFEGLT [STK38L] | 1.92 ± 0.19 | 2.39 ± 0.59 |
| TFSMPSDSHVSSCSEDWVGYQRKC [CD69] | 3.64 ± 0.23 | 3.51 ± 0.23 |
| TFVSGGCDKKAMVWDMRSGQCVQA [GNB5] | 2.68 ± 0.2 | 2.89 ± 0.46 |

| Sequence | protein stability index (treatment: DMSO) | protein stability index (treatment: MLN4924 1 uM, 8 h) |
| --- | --- | --- |
| TFWASWRAFAQIGPARSGFRLETL [MIR22HG] | 2.73 ± 0.42 | 2.47 ± 0.41 |
| TGANTKKPEDTAEDLTAKRKRMKM [FAM9B] | 5.4 ± 0.28 | 5.15 ± 0.51 |
| TGTALRFRVLCTAPAKYTVFDAEG [MOSPD3] | 2.49 ± 0.95 | 2.54 ± 0.41 |
| TKGHPRAVSQPFRLSSSLQGSAVT [CDC14A] | 3.49 ± 0.41 | 3.54 ± 0.28 |
| TKLHDIDGVPHLILIASRDIAAGE [KMT5A] | 2.36 ± 0.33 | 2.33 ± 0.25 |
| TLDVYNPFETREPPPAYEPPAPAP [SCAMP3] | 4.51 ± 0.18 | 4.61 ± 0.2 |
| TLPAGADFLMCYSVAEGYYSHRET [CASP6] | 2.5 ± 0.15 | 2.51 ± 0.4 |
| TLVSRAHQLVMEGYNWCHDRNVVT [PPP2CA] | 2.27 ± 0.23 | 2.21 ± 0.13 |
| TPVVLVGNKSDLKQLRQVTKEEGL [RIT1] | 4.54 ± 0.15 | 4.59 ± 0.32 |
| TQHLPRECLPENLGGYVKIDLATW [PTPN9] | 2.34 ± 0.4 | 2.31 ± 0.41 |
| TRHEGSFQVPVLCAVMNVVFITIL [CD69] | 2.76 ± 0.55 | 2.63 ± 0.58 |
| TSRDRKDHMVRMHLYPADFRFDKP [ZNF511] | 2.87 ± 0.31 | 3.22 ± 0.14 |
| TSRGGPWVGTGLAAALAGLVGLAT [CPOX] | 1.89 ± 0.93 | 2.49 ± 0.087 |
| TSRRARASKKTAQPWVEVVLALRN [MFSD9] | 2.33 ± 0.12 | 2.58 ± 0.19 |
| TSSSTVVSTQRSQDHFHVFVGDLS [TIA1] | 3.34 ± 0.071 | 3.42 ± 0.23 |
| TVFYIPEDHKPGTFPKALTNGSFS [DLC1] | 2.86 ± 0.14 | 3.11 ± 0.26 |
| TVGTPDYIAPEVFMQTGYNKLCDW [STK38L] | 2.82 ± 0.16 | 2.97 ± 0.37 |
| TYKLKCKALQEENRDLRKASVTIQ [CCDC6] | 3.64 ± 0.3 | 3.7 ± 0.21 |
| TYQVHDYLRSKLCSLYENDCIFDK [PPP2R2C] | 2.22 ± 0.26 | 2.32 ± 0.48 |
| VAAGEKSILTDNPTWIIDPIDGTT [IMPA1] | 3.92 ± 0.19 | 4.03 ± 0.2 |
| VCGQNWGIVEAMVVCRQLGLGFAS [LOXL2] | 3.33 ± 0.11 | 3.18 ± 2 |
| VCYTACATLKGPDSHYGTKGLKKV [BTBD1] | 3.06 ± 0.42 | 3.21 ± 0.23 |
| VDCTEIFGGNPRFLSLHRAHLGEE [ZNF263] | 3.11 ± 0.4 | 3.24 ± 0.25 |

| Sequence | protein stability index (treatment: DMSO) | protein stability index (treatment: MLN4924 1 uM, 8 h) |
| --- | --- | --- |
| VDHQGVSWYHWKGFEFSVPFTEMK [TNXB] | 2.45 ± 0.55 | 2.49 ± 0.74 |
| VDMECQTDAFLDRPPTPLFIPAKT [RSPH3] | 4.01 ± 0.1 | 4.19 ± 0.061 |
| VEAVKNELRRQAPPPPPPSRGGPP [WASL] | 4.91 ± 0.29 | 4.92 ± 0.078 |
| VFGTSLTARVIIPLLKDEGFAVKA [GFOD1] | 2.7 ± 0.57 | 2.34 ± 0.25 |
| VFPAPVVGSGGATSGKLLLEADEL [ZBTB22] | 4.93 ± 0.25 | 4.73 ± 0.22 |
| VFQHGDNSFRLLFDVVVILTCSLS [MCOLN1] | 3.25 ± 0.13 | 3.32 ± 0.21 |
| VFSFDLHEPLSKERVEAFSDGVYA [TMEM175] | 3.1 ± 0.24 | 3.24 ± 0.28 |
| VGDEFLNCKLATRAKDFLPADIQA [SNX8] | 2.88 ± 0.26 | 2.92 ± 0.27 |
| VGITVLNLCALSVDRYRAVASWSR [EDNRA] | 2.86 ± 0.66 | 2.87 ± 0.6 |
| VGQQVHNLLLTYLIVTSLLLLPGL [ARL6IP1] | 3.27 ± 0.26 | 3.46 ± 0.57 |
| VGSDEEDDSGKDKKKKTKKIKEKY [HSP90AB1] | 5.31 ± 0.47 | 5.32 ± 0.42 |
| VHSERKLLPLVTLCDGNPRRPSPV [SCNN1D] | 3.58 ± 0.23 | 3.56 ± 0.49 |
| VHVSESSDDDEEEEENIGCEEKAK [ACBD3] | 5.55 ± 0.32 | 5.62 ± 0.12 |
| VIQAVQKSEEGHPFKAYLDVDITL [RTN3] | 2.23 ± 0.59 | 2.18 ± 0.39 |
| VIRGLNTIPLFVQLLYSPIENIQR [CTNNB1] | 2.76 ± 0.3 | 2.68 ± 0.4 |
| VKALEDFEDLCDRVFSDEDSELDN [FAM9B] | 5.34 ± 0.26 | 5.28 ± 0.27 |
| VKCFNDLKAEELLLKIHEVSTVSH [CASP6] | 2.23 ± 0.24 | 2.44 ± 0.16 |
| VKEELSQKFDTLYAILDEKKSELL [TRIM63] | 3.6 ± 0.41 | 3.58 ± 0.17 |
| VKFISNPPSMVAAGSVVAAVQGLN [CCND1] | 2.43 ± 0.62 | 2.42 ± 0.24 |
| VKMLGSPVDSVLFYAITTLHNLLL [CTNNB1] | 2.47 ± 0.59 | 2.48 ± 0.6 |
| VLDSLLLTLLPQLQEAWQQRTPSP [RSAD1] | 2.85 ± 0.052 | 3.27 ± 0.43 |
| VLEHSLDREEEAIHHLVLTASDGG [PCDHGA10] | 4.66 ± 0.18 | 4.84 ± 0.17 |
| VLERAACLRRCKRTLPAFQVPYPP [P3H4] | 2.16 ± 0.29 | 2.16 ± 0.19 |

| Sequence | protein stability index (treatment: DMSO) | protein stability index (treatment: MLN4924 1 uM, 8 h) |
| --- | --- | --- |
| VLLEEPLPLETARESPSFKLEPME [ZNF263] | 4.02 ± 0.24 | 4.284 ± 0.038 |
| VLPPRQPSALVPSVTEYRLDGHTI [MYBL2] | 3.35 ± 0.35 | 3.41 ± 0.24 |
| VPGIFCAGADLKERAKMSSSEVGP [AUH] | 3.59 ± 0.34 | 3.64 ± 0.29 |
| VPHNGSSEATLPAQMSTLHVSPPP [PDLIM4] | 4.87 ± 0.17 | 4.73 ± 0.19 |
| VQGPGVVGEFPIISPGRVYEYTSC [FBXO3] | 2.72 ± 0.52 | 3 ± 0.32 |
| VQQQKLAEERRRQNLQEEKERKLE [FAF2] | 4.87 ± 0.15 | 5.19 ± 0.43 |
| VQRVMAQALGIPATECEFVGSLPV [LPCAT4] | 2.78 ± 0.25 | 2.76 ± 0.3 |
| VRAHQDTQRRTSMGGTQQQFVEGV [CTNNB1] | 4.232 ± 0.018 | 4.24 ± 0.14 |
| VRKKERGREEKCVWKHGITPPLKN [TAF7L] | 3.85 ± 0.41 | 3.83 ± 0.3 |
| VRLAARQEDAPMIEPLVPEEKMET [EPB41L3] | 4.9 ± 0.16 | 5.17 ± 0.24 |
| VRLKPALQRLDFSVRGYMMSKQRE [RETREG3] | 2.64 ± 0.48 | 2.7 ± 0.44 |
| VRLRTLLCKVLGVLFSVAGGLFVG [CLCN6] | 2.87 ± 0.14 | 2.88 ± 0.17 |
| VRRQRSADEQLHCAGKAKRSGGHA [ESR2] | 4.51 ± 0.32 | 4.75 ± 0.13 |
| VRSQYPNQPTRFGKLLLRLPSLRT [NR2F2] | 2.42 ± 0.16 | 2.49 ± 0.23 |
| VSKGAESSRSSEESSSDSGSSDSE [BRD3] | 5.61 ± 0.24 | 5.6 ± 0.41 |
| VTHTLTMRQRISRVEESALRALRE [PPEF2] | 3.5 ± 0.38 | 3.86 ± 0.012 |
| VTLALFFVLYFLLACWTYGISVPS [CLCN6] | 2.95 ± 0.27 | 2.98 ± 0.19 |
| VTLKTAVDGPDLEMLTGQERVALA [FKBP8] | 3.7 ± 0.23 | 3.81 ± 0.24 |
| VVEEILELHIHRLRYLSSIWNILD [PKD2L1] | 3.29 ± 0.65 | 3.04 ± 0.3 |
| VVMNLDSRLLIFPLYICCNFLYIS [GMCL1] | 2.59 ± 0.59 | 2.94 ± 0.36 |
